Measurements from US20180049457A1, “ENZYMATIC SYNTHESIS OF SOLUBLE GLUCAN FIBER” (E I DU PONT DE NEMOURS AND COMPANY, priority 2014, published 2018).

Assay: GTF activity of strains (PAHBAH assay)
Assay type: biochemical
Details: enzyme expressed in B. subtilis host
Method in brief: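 Glucosyltransferase (GTF) activity of the bacterial strains was measured with the PAHBAH assay. The enzymes tested were truncated GTF variants produced in a Bacillus subtilis expression host. Measurements were split across three separate experiments, and each activity value is reported together with the experiment it came from because results varied slightly between experiments.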

B1: GTF4991T2: T2 C-terminal truncation of GTF4991, SEQ ID NO: 150, strain SG1311 (protein)
chain: INGKQYYVNSDGSVRKNFVFEQDGKSYYFDAETGALATKSQDEFSTEPIKATVDFSSGNQLYKNDDKSLDQLDTFITADAWYRPKSILKDGKTWTASTEADKRPLLMVWWPDKSTQVNYLNYMQNQGLGAGSFSTNSSQESLDQAAKAVQTKIEERIAREGNTNWLRTSIDQFIKTQPGWNSSTENSSYDHLQGGQLLFNNSKGDTGNRTSHANSDYRLLNRTPTNQTGTRKYFKDNSIGGLEFLLANDIDNSNPAVQAEQLNWLHFMMNIGSIMANDPTANFDGLRVDALDNVDADLLQIASDYFKAAYGVDKSEANAIKHLSYLEAWSANDPYYNKDTKGAQLPIDNALRNALTNLLMRDKNTRMQLGDMTAFINSSLNPRGANDKNGERMANYIFTRAHDTEAQTIIQRIIRDRINPNLFGYNFTRDEIKKAFEIYNEDIDKAHKTYASYNLPSVYALMLTNKDSVTRVYYGDLYREDGHYMAKKTPYFDAIDTLLRARIKYVAGGQDMEVKKVGNDGLLTSVRYGKGANNRTDLGTSETRTQGMGVIMTNNYDFRLGSNETVTMNMGRAHRNQLYRPLLLTTKDGIATYLNDSDVPKNLLKRTDWNGNLTFNANDVFGVENVQVSGYLGVWVPYGAKANQDARTQPSNRANSDGQVYKSSAALDSQVMYEAFSNFQAFADDQPELYMNRVLAKNTDLLKAWGITSVGLPPQYVSSKDGTFLDSIIDNGYAFDDRYDMALSQNNKYGSLEDLLNVLRALHKDGIQAIADWVPDQIYNLPGKEVVNATRVNGYGYHQQGYQIVDQAYVANTRTDGTDYQGKYGGAFLDELKAKYPSIFNRVQISNGKQLPTNEKITKWSAKYFNGTNILGRGINFVLRDDKTNQYFNTSANSQLLPTPLRDTGAITSTQVFQRRGQDVYFLRDNQTVKNEFVQDGNGNWYYFGGDG
modifications: T2 C-terminal truncation of GTF4491
With B1 the “GTF activity of strains: Acitivity” value (Experiment Number 1) was 4.9 U/mL.

B2: GTF4336T6: T6 C-terminal truncation of GTF4336, SEQ ID NO: 146, strain SG1309 (protein)
chain: INGKQYYVNSDGSVRKNFVFEQDGKSYYFDAETGALATKSQDEFSTEPIKATVDFSSGNQLYKNDDKSLDQLDTFITADAWYRPKSILKDGKTWTASTEADKRPLLMVWWPDKSTQVNYLNYMQNQGLGAGSFSTNSSQESLDQAAKAVQTKIEERIAREGNTNWLRTSIDQFIKTQPGWNSSTENSSYDHLQGGQLLFNNSKGDTGNRTSHANSDYRLLNRTPTNQTGTRKYFKDNSIGGLEFLLANDIDNSNPAVQAEQLNWLHFMMNIGSIMANDPTANFDGLRVDALDNVDADLLQIASDYFKAAYGVDKSEANAIKHLSYLEAWSANDPYYNKDTKGAQLPIDNALRNALTNLLMRDKNTRMQLGDMTAFINSSLNPRGANDKNGERMANYIFTRAHDTEAQTIIQRIIRDRINPNLFGYNFTRDEIKKAFEIYNEDIDKAHKTYASYNLPSVYALMLTNKDSVTRVYYGDLYREDGHYMAKKTPYFDAIDTLLRARIKYVAGGQDMEVKKVGNDGLLTSVRYGKGANNRTDLGTSETRTQGMGVIMTNNYDFRLGSNETVTMNMGRAHRNQLYRPLLLTTKDGIATYFNDSDVPKNLLKRTDWNGNLTFNANDVFGVENVQVSGYLGVWVPVGAKANQDARTQPSNRANSDGQVYKSSAALDSQVMYEAFSNFQAFADDQPELYMNRVLAKNTDLLKAWGVTSVGLPPQYVSSKDGTFLDSTIDNGYAFDDRYDMALSQNNKYGSLEDLLNVLRALHKDGIQAIADWVPDQIYNLPGKEVVNATRVNGYGYHQQGYQIVDQAYVANTRTDGTDYQGKYGGAFLDELKAKYPSIFNRVQISNGKQLPTNEKITKWSAKYFNGTNILGRGINYVLRDDKTNQYFNTSANSQLLPTPLRDTGAITSTQVFQRRGQDVYFLRDNQAVKNEFVQDGNGNWYYFGADGKMTKGAQTINKKDYYFFDNGIQLRNALRRANNGYTYYYGLDGAMVKNAFVDFDDKRKQVRAFTTQG
modifications: T6 C-terminal truncation of GTF4336
In the case of B2, the “GTF activity of strains: Acitivity” value (Experiment Number 1) is reported as 28.9 U/mL.

B3: GTF4991T1: T1 C-terminal truncation of GTF4991, SEQ ID NO: 148, strain SG1310 (protein)
chain: INGKQYYVNSDGSVRKNFVFEQDGKSYYFDAETGALATKSQDEFSTEPIKATVDFSSGNQLYKNDDKSLDQLDTFITADAWYRPKSILKDGKTWTASTEADKRPLLMVWWPDKSTQVNYLNYMQNQGLGAGSFSTNSSQESLDQAAKAVQTKIEERIAREGNTNWLRTSIDQFIKTQPGWNSSTENSSYDHLQGGQLLFNNSKGDTGNRTSHANSDYRLLNRTPTNQTGTRKYFKDNSIGGLEFLLANDIDNSNPAVQAEQLNWLHFMMNIGSIMANDPTANFDGLRVDALDNVDADLLQIASDYFKAAYGVDKSEANAIKHLSYLEAWSANDPYYNKDTKGAQLPIDNALRNALTNLLMRDKNTRMQLGDMTAFINSSLNPRGANDKNGERMANYIFTRAHDTEAQTIIQRIIRDRINPNLFGYNFTRDEIKKAFEIYNEDIDKAHKTYASYNLPSVYALMLTNKDSVTRVYYGDLYREDGHYMAKKTPYFDAIDTLLRARIKYVAGGQDMEVKKVGNDGLLTSVRYGKGANNRTDLGTSETRTQGMGVIMTNNYDFRLGSNETVTMNMGRAHRNQLYRPLLLTTKDGIATYLNDSDVPKNLLKRTDWNGNLTFNANDVFGVENVQVSGYLGVWVPYGAKANQDARTQPSNRANSDGQVYKSSAALDSQVMYEAFSNFQAFADDQPELYMNRVLAKNTDLLKAWGITSVGLPPQYVSSKDGTFLDSIIDNGYAFDDRYDMALSQNNKYGSLEDLLNVLRALHKDGIQAIADWVPDQIYNLPGKEVVNATRVNGYGYHQQGYQIVDQAYVANTRTDGTDYQGKYGGAFLDELKAKYPSIFNRVQISNGKQLPTNEKITKWSAKYFNGTNILGRGINFVLRDDKTNQYFNTSANSQLLPTPLRDTGAIT
modifications: T1 C-terminal truncation of GTF4491
In the case of B3, the “GTF activity of strains: Acitivity” value (Experiment Number 1) is reported as 23.1 U/mL.

B4: GTF4991T6: T6 C-terminal truncation of GTF4991, SEQ ID NO: 152, strain SG1312 (protein)
chain: INGKQYYVNSDGSVRKNFVFEQDGKSYYFDAETGALATKSQDEFSTEPIKATVDFSSGNQLYKNDDKSLDQLDTFITADAWYRPKSILKDGKTWTASTEADKRPLLMVWWPDKSTQVNYLNYMQNQGLGAGSFSTNSSQESLDQAAKAVQTKIEERIAREGNTNWLRTSIDQFIKTQPGWNSSTENSSYDHLQGGQLLFNNSKGDTGNRTSHANSDYRLLNRTPTNQTGTRKYFKDNSIGGLEFLLANDIDNSNPAVQAEQLNWLHFMMNIGSIMANDPTANFDGLRVDALDNVDADLLQIASDYFKAAYGVDKSEANAIKHLSYLEAWSANDPYYNKDTKGAQLPIDNALRNALTNLLMRDKNTRMQLGDMTAFINSSLNPRGANDKNGERMANYIFTRAHDTEAQTIIQRIIRDRINPNLFGYNFTRDEIKKAFEIYNEDIDKAHKTYASYNLPSVYALMLTNKDSVTRVYYGDLYREDGHYMAKKTPYFDAIDTLLRARIKYVAGGQDMEVKKVGNDGLLTSVRYGKGANNRTDLGTSETRTQGMGVIMTNNYDFRLGSNETVTMNMGRAHRNQLYRPLLLTTKDGIATYLNDSDVPKNLLKRTDWNGNLTFNANDVFGVENVQVSGYLGVWVPYGAKANQDARTQPSNRANSDGQVYKSSAALDSQVMYEAFSNFQAFADDQPELYMNRVLAKNTDLLKAWGITSVGLPPQYVSSKDGTFLDSIIDNGYAFDDRYDMALSQNNKYGSLEDLLNVLRALHKDGIQAIADWVPDQIYNLPGKEVVNATRVNGYGYHQQGYQIVDQAYVANTRTDGTDYQGKYGGAFLDELKAKYPSIFNRVQISNGKQLPTNEKITKWSAKYFNGTNILGRGINFVLRDDKTNQYFNTSANSQLLPTPLRDTGAITSTQVFQRRGQDVYFLRDNQTVKNEFVQDGNGNWYYFGGDGKMTKGAQNINSKDYYFFDNGVQLRNALRRASNGYTYYYGLDGAMVKNAFVDFDDKHKQVRAFTTQG
modifications: T6 C-terminal truncation of GTF4491
In the case of B4, the “GTF activity of strains: Acitivity” value (Experiment Number 1) is reported as 1.7 U/mL.

B5: GTF0974T4: T4 C-terminal truncation of GTF0974 glucosyltransferase, SEQ ID NO: 128, strain SG1316 (protein)
chain: INGKQYYVNSDGSVRKNFVFEQDGKSYYFDAETGALATKSQDEFSTEPIKATVDFSSGNQLYKNDDKSLDQLDTFITADAWYRPKSILKDGKTWTASTEADKRPLLMVWWPDKSTQVNYLNYMQNQGLGAGSFSTNSSQESLDQAAKAVQTKIEERIAREGNTNWLRTSIDQFIKTQPGWNSSTENSSYDHLQGGQLLFNNSKGDTGNRTSHANSDYRLLNRTPTNQTGTRKYFKDNSIGGLEFLLANDIDNSNPAVQAEQLNWLHFMMNIGSIMANDPTANFDGLRVDALDNVDADLLQIASDYFKAAYGVDKSEANAIKHLSYLEAWSANDPYYNKDTKGAQLPIDNALRNALTNLLMRDKNTRMQLGDMTAFINSSLNPRGANDKNGERMANYIFTRAHDTEAQTIIQRIIRDRINPNLFGYNFTRDEIKKAFEIYNEDIDKAHKTYASYNLPSVYALMLTNKDSVTRVYYGDLYREDGHYMAKKTPYFDAIDTLLRARIKYVAGGQDMEVKKVGNDGLLTSVRYGKGANNRTDLGTSETRTQGMGVIMTNNYDFRLGSNETVTMNMGRAHRNQLYRPLLLTTKDGIATYLNDSDVPKKLLKRTDWNGNLTFNANDVFGVENVQVSGYLGVWVPYGAKANQDARTQPSNRANSDGQVYKSSAALDSQVMYEAFSNFQAFADDQPELYMNRVLAKNTDLLKAWGITSVGLPPQYVSSKDGTFLDSTIDNGYAFDDRYDMALSQNNKYGSLEDLLNVLRALHKDGIQAIADWVPDQIYNLPGKEVVNATRVNGYGNHQVGYQIIDQAYVANTRTDGTDYQGKYGGAFLDELKAKYPSIFNRVQISNGKQLPTNEKITKWSAKYFNGTNILGRGINYVLRDDKTNQYFNTSANSQLLPTPLRDTGAITSTQVFQRRGQDVYFLRDNQAVKNEFVQDGNGNWYYFGGDGKMTKGAQNINNKDYYFFDNGIQLRNALRRASNGYTYYYGLDGAMVKNAFVDFDDKHK
modifications: T4 C-terminal truncation of GTF0974
For B5, the “GTF activity of strains: Acitivity” value (Experiment Number 2) was 47.2 U/mL and the “GTF activity of strains: Acitivity” value (Experiment Number 3) was 33.9 U/mL.
